This experiment addresses T1, GroEL homologue from secondary endosymbiotic bacteria of the whitefly Bemisia tabaci (endosymbiotic bacteria of Bemisia tabaci, UniProt C4K477 1-552).
T1 construct: Chaperonin expressed in planta and assayed in plant sap; also called whitefly GroEL; B. tabaci GroEL
The experiment can be described thus: capture of sap of infected GroEL-transgenic N. benthamiana (7 dpi) in anti-GroEL coated tubes; RT-PCR and Western blot with virus-specific antibodies.

Protocol: Transgenic and non-transgenic N. benthamiana plants were mechanically inoculated with GVA and with TMV. Infection was assessed by RT-PCR and by Western blot analyses at 5-7 dpi (FIGS. 12A and 13A). The possible binding of GVA and TMV particles to GroEL in transgenic N. benthamiana plants was assessed as described above. Sap of infected transgenic plants at 7 dpi was incubated in PCR tubes coated with anti-GroEL antibody. Binding of GroEL-virus complexes to the coated tubes was assayed by RT-PCR and with virus-specific antibodies.

B1: Grapevine virus A (GVA) (other)
chain: MAHYAKRVEIRAIIEELVLAKAQPTDDASESGYDRNMYLNTLFGYIALVGTSKKAIHYGEVDIVGPKASKKTGIDPRGKMVVSELVGRMRTLSVAVSEGPVKGATLRQMCEPFAQNAYDFLVVMAEMGTYSQLATKMTRSGFKEPQVMFDFASGLDLKALTLQEATVIQAMHSRLFRTEGAKGVFNAQSSIGEQAVEI
notes: The partner in the assay is the whole filamentous virus particle in plant sap
With B1, the binding result was “no binding”.

The record behind these values is US20100115665A1 (published 2010).
